Reference: IntAct's records for PubMed 16292983

B1: Ankyrin-2 (Homo sapiens), Q01484-2 (parent)
chain: MMNEDAAQKSDSGEKFNGSSQRRKRPKKSDSNASFLRAARAGNLDKVVEYLKGGIDINTCNQNGLNALHLAAKEGHVGLVQELLGRGSSVDSATKKGNTALHIASLAGQAEVVKVLVKEGANINAQSQNGFTPLYMAAQENHIDVVKYLLENGANQSTATEDGFTPLAVALQQGHNQAVAILLENDTKGKVRLPALHIAARKDDTKSAALLLQNDHNADVQSKMMVNRTTESGFTPLHIAAHYGNVNVATLLLNRGAAVDFTARNGITPLHVASKRGNTNMVKLLLDRGGQIDAKTRDGLTPLHCAARSGHDQVVELLLERGAPLLARTKNGLSPLHMAAQGDHVECVKHLLQHKAPVDDVTLDYLTALHVAAHCGHYRVTKLLLDKRANPNARALNGFTPLHIACKKNRIKVMELLVKYGASIQAITESGLTPIHVAAFMGHLNIVLLLLQNGASPDVTNIRGETALHMAARAGQVEVVRCLLRNGALVDARAREEQTPLHIASRLGKTEIVQLLLQHMAHPDAATTNGYTPLHISAREGQVDVASVLLEAGAAHSLATKKGFTPLHVAAKYGSLDVAKLLLQRRAAADSAGKNGLTPLHVAAHYDNQKVALLLLEKGASPHATAKNGYTPLHIAAKKNQMQIASTLLNYGAETNIVTKQGVTPLHLASQEGHTDMVTLLLDKGANIHMSTKSGLTSLHLAAQEDKVNVADILTKHGADQDAHTKLGYTPLIVACHYGNVKMVNFLLKQGANVNAKTKNGYTPLHQAAQQGHTHIINVLLQHGAKPNATTANGNTALAIAKRLGYISVVDTLKVVTEEVTTTTTTITEKHKLNVPETMTEVLDVSDEEGDDTMTGDGGEYLRPEDLKELGDDSLPSSQFLDGMNYLRYSLEGGRSDSLRSFSSDRSHTLSHASYLRDSAVMDDSVVIPSHQVSTLAKEAERNSYRLSWGTENLDNVALSSSPIHSGFLVSFMVDARGGAMRGCRHNGLRIIIPPRKCTAPTRVTCRLVKRHRLATMPPMVEGEGLASRLIEVGPSGAQFLGKLHLPTAPPPLNEGESLVSRILQLGPPGTKFLGPVIVEIPHFAALRGKERELVVLRSENGDSWKEHFCDYTEDELNEILNGMDEVLDSPEDLEKKRICRIITRDFPQYFAVVSRIKQDSNLIGPEGGVLSSTVVPQVQAVFPEGALTKRIRVGLQAQPMHSELVKKILGNKATFSPIVTLEPRRRKFHKPITMTIPVPKASSDVMLNGFGGDAPTLRLLCSITGGTTPAQWEDITGTTPLTFVNECVSFTTNVSARFWLIDCRQIQESVTFASQVYREIICVPYMAKFVVFAKSHDPIEARLRCFCMTDDKVDKTLEQQENFAEVARSRDVEVLEGKPIYVDCFGNLVPLTKSGQHHIFSFFAFKENRLPLFVKVRDTTQEPCGRLSFMKEPKSTRGLVHQAICNLNITLPIYTKESESDQEQEEEIDMTSEKNPQDEQERIEERLAYIADHLGFSWTELARELDFTEEQIHQIRIENPNSLQDQSHALLKYWLERDGKHATDTNLVECLTKINRMDIVHLMETNTEPLQERISHSYAEIEQTITLDHSEGFSVLQEELCTAQHKQKEEQAVSKESETCDHPPIVSEEDISVGYSTFQDGVPKTEGDSSATALFPQTHKEQVQQDFSGKMQDLPEESSLEYQQEYFVTTPGTETSETQKAMIVPSSPSKTPEEVSTPAEEEKLYLQTPTSSERGGSPIIQEPEEPSEHREESSPRKTSLVIVESADNQPETCERLDEDAAFEKGDDMPEIPPETVTEEEYIDEHGHTVVKKVTRKIIRRYVSSEGTEKEEIMVQGMPQEPVNIEEGDGYSKVIKRVVLKSDTEQSEDNNE

Variants of: B1
Conditions: with nac1_human SLC8A1, P32418

Variant | effect of a mutation on the interaction
E1458G | disrupting interaction
